Measurements as given in the DeepSol protein solubility set.

experiment: soluble on expression in E. coli; label from the status in PepcDB or PDB records

Q: With “MTTNKDHFMAKIQLVAQANLPTEYGIFKMVGFEFPDTKKEHVALVMGDISNADEPVLARIHSECLTGDALHSLKCDCGFQLATALKQIQEEGRGVLIYHREEGRGIGLINKIRAYSLQDKGMDTIEANLALGFKADERNFEVCADMFELLGVKKVRLMTNNPEKVETMKKAGINVVERVPLNVGENRYNTKYLDTKAKKMGHYIVHNNDEQHLMTCPHCQEEIILEHHHHHH” as the sequence, how does the “soluble on expression in E. coli” value read?
A: The value was “soluble”.

Q: Which “soluble on expression in E. coli” value does the source give for “MSLSSYTVLAVDDSEINLKLIVHTLQPFGFQIFTAESAADARNVLLTNRVDVLLLDVSMPDQDGFSFCRELREIERFKLLPILFITGINREVGFDEAISHGGDDFIQKPFQPKELIAKIRAFIRIKILQDELLEQKKNYERELIMARKVQQELLPEKELEWNGVSLSTIFQPLMQIGGDYTDAWIEDDSLHIFIADCSGHGPSAALLAAMLKMQVSSLSPDQSLQEKVQTLRHNLEKILPDEFSITFFYGILHKDLSFEYSNGGHPAPMLYQNGEVSILPGMGPLIIPIEINVKEEFKSVQLQKDSYMLLYTDGATEISDKSMNILGEDKLKKIFQESVSIGGDILVSMMESILAHSDRGTNDDDIAMMVLKLEGHHHHHH” here?
A: The value was “soluble”.

Q: With “MSLELSLADRPAIVTGASRGIGREIAARFAEAGGDVVVCSRTYEDVEAVATELTQTHDGRVVPVECDVTDREAVRDLVDTTIQEFGDIRVLVNNAGGADESANLLHRCDEETFESMVDLNLKSQFLLSKEVLPAMVAAGGGSIIHMGSVNGLFGIGLSGYSEAKSGLLALSRNIAAHYGQHGVRSNVISAATIETANRRAEMENTEERTGETSARERWLDQYPLGRFGTPREVADTTLFLASEMSSFLTGENLVLDGGLTTSLPTSFINEVYDADEKPTPNEGHHHHHH” as the sequence, how does the “soluble on expression in E. coli” value read?
A: The value was “soluble”.

Q: Which “soluble on expression in E. coli” value does the source give for “MNRHPALSLDLDDGIDRKVLGQLRQRFLAVNAGRLQRARQALSSRQERVLRLLPLLFHINHPLLPGYLSASTPAGLSGFEADDEVLAEAQRLARSFVYKPRRQEPAQQPIHGLFLMGSLGSLAQEEQSDLDLWVCHAPELEPGARQELRRKCALIEDWARSQGSEVHCFLIDVARFGQDEREDRKEPGGDGNTQHFLLLDEFYRSAIWLGGRTPLWWLVPPAHERRYDEYCRTLLGKRFIRAEEVLDLGHLAHIPAREFIGAGLWQLSKAIDSPYKSLLKLLLTEAYASEHPRVRCVALRFKEQVFAGQLDLDELDPYVLVYRHLERYLREQQAPERLELVRRCLYLKVGRKLGGRQRQAQKGWQHLSMERLVAEWQWEPRRLALLDSRSQWKMRQVMEERRTVVNELTYSYRLLFQIARQQGADSGIDSRDLGLLGRRLYAAFERKAGKVENINPGIAPDLGEDVLTLVQLPADDGREQAQWAIFPGALGAHQWPDYAPLKRSLRLVELLAWCHRNGVIDSATRLSLHPGQSDLGDAELDNLLGSLRQFLPVPLATVDDADLLQPRRLKSVLLLVNVGVDPLRHHSQMNLHMATGRTDVLGYAGVRDNLVLTLDQLSLNSWNELTVRHYAGPQALPECLAEFLDAVREKPGSPPQPPELMVRCFCRNRAAAIAVRVEELFRETYGQLLGGQPSRYLLQIRQQYHLLEMSPEAVSHESLPDLPSLLQHLGRERDGYSALKLDRHALEGEDLGLILSMGRPDCIQVFYRRDFDSAEISLLDERNALWRQRQALRDERSLLAPLQRFLQSLLYRRNALSLAEQVPAALDIRYYELLSNDGRVHVEPREAPEALAGPALYELQALLERGERKRVQVTLYCDHQEFSELEYGAGLFKAVARHILAHRAESEPYPCYLTDLDLSRLFADEQPQTLHYLRYKSVLETALNQALLE” here?
A: Its value is “not soluble”.

Q: With “MAHHHHHHMEDKLDFTKLRDPFDMDEINRKLQEKVADDDPVQKAMPDPMDPKFRAPLRCSACGAVIEHAVRLLRPIIERQSERAARSGGVLPADALPKEYEMVDIFENLCGEVGRLYGLEVEKDKKRPTLRFSKSFGVSRLQGAWMPSFLTSTCEGVLDVEGEEKLAAMILGVARSEAEAGRGKVISMNPDQGIVDKVREMVCTKWEESAKGCDAYGVAIDPRETDNDDGAEEAASDL” as the sequence, how does the “soluble on expression in E. coli” value read?
A: The value was “not soluble”.
